Test results from the supplement of paper PMC10567573.

B1: TRIM63 (parent)
chain: QRITQEQEKKLSFIEALIQQYQEQ

Variants of: B1
Assay: protein stability index of a GFP-peptide fusion (GPS, HEK-293T) (PSI 1-6); higher = more stable
Conditions: c terminus: a fixed tail appended
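Note: lentivirally expressed fusions sorted by FACS into six bins by GFP to DsRed ratio, PSI derived from sequencing read proportions per bin multiplied by bin number.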

| Variant | protein stability index |
| --- | --- |
| QRITQEQEKKLSFIEPLIQQYQEQ [A16P] | 4.08 |
| QRITQEQEKKLSFIENLIQQYQEQ [A16N] | 2.69 |
| QRITQEQEKKLSFIEFLIQQYQEQ [A16F] | 2.57 |
| QRITQEQEKKLSFIEALIQQYQDQ [E23D] | 2.62 |
| QRITQEQEKKLSFIEALIQQYQVQ [E23V] | 2.34 |
| QRITQEQEKKLSFIEALIQQYQYQ [E23Y] | 1.99 |
| QRITQEQEKKLSFIEALIQQYQKQ [E23K] | 2.4 |
| QRITQEQEKKLSFIEALIQQYQLQ [E23L] | 2.65 |
| QRITQEQEKKLSFIEALIQQYQTQ [E23T] | 1.94 |
| QRITQEQEKKLSFIEATIQQYQEQ [L17T] | 3.31 |
| QRITQEQEKKLSFIEACIQQYQEQ [L17C] | 2.23 |
| QRITQEQEKKLSFIEANIQQYQEQ [L17N] | 4.73 |
| QRITQEQEKKLSFIEAPIQQYQEQ [L17P] | 4.63 |
| QRITWEQEKKLSFIEALIQQYQEQ [Q5W] | 1.24 |
| QRITDEQEKKLSFIEALIQQYQEQ [Q5D] | 2.74 |
| QRITQEQEKKLSFIAALIQQYQEQ [E15A] | 2.82 |
| QRITQEQEKKLSFIFALIQQYQEQ [E15F] | 1.92 |
| QRITQEQEKKLSFIKALIQQYQEQ [E15K] | 2.11 |
| QRITQGQEKKLSFIEALIQQYQEQ [E6G] | 2.39 |
| QRITQHQEKKLSFIEALIQQYQEQ [E6H] | 1.71 |
| QRITQEQEKKLSFMEALIQQYQEQ [I14M] | 2.79 |
| QRITQEQEKKLSFEEALIQQYQEQ [I14E] | 2.77 |
| QRITQEQEKKLSFNEALIQQYQEQ [I14N] | 4.7 |
| QRITQEQEKKLSFLEALIQQYQEQ [I14L] | 2.23 |

| Variant | protein stability index |
| --- | --- |
| QRITQEQEKKLSKIEALIQQYQEQ [F13K] | 3.59 |
| QRITQEQEKKLSWIEALIQQYQEQ [F13W] | 1.68 |
| QRITQEQEKKLSRIEALIQQYQEQ [F13R] | 3.91 |
| QRITQEQEKKLSVIEALIQQYQEQ [F13V] | 3.93 |
| QRITQEQEKKLSCIEALIQQYQEQ [F13C] | 3.56 |
| QRITQEQEAKLSFIEALIQQYQEQ [K9A] | 2.6 |
| QRITQEQEVKLSFIEALIQQYQEQ [K9V] | 2.22 |
| QRITQEQECKLSFIEALIQQYQEQ [K9C] | 2.29 |
| QRITQEQEGKLSFIEALIQQYQEQ [K9G] | 2.78 |
| QRITQEQEQKLSFIEALIQQYQEQ [K9Q] | 2.82 |
| QRITQEQEPKLSFIEALIQQYQEQ [K9P] | 3.01 |
| QRITQEQEKKLPFIEALIQQYQEQ [S12P] | 3.91 |
| QRITQEQEKKLHFIEALIQQYQEQ [S12H] | 2.9 |
| QRITQEQEKKLSFIEALIQQEQEQ [Y21E] | 2.11 |
| QRITQEQEKKLSFIEALIQQQQEQ [Y21Q] | 2.75 |
| QRITQEQEKKLSFIEALIQQLQEQ [Y21L] | 1.6 |
| QRITQEQEKKLSFIEALIQQIQEQ [Y21I] | 1.84 |
| QRISQEQEKKLSFIEALIQQYQEQ [T4S] | 2.5 |
| QRIDQEQEKKLSFIEALIQQYQEQ [T4D] | 3.22 |
| QRIGQEQEKKLSFIEALIQQYQEQ [T4G] | 2.73 |
| QRIHQEQEKKLSFIEALIQQYQEQ [T4H] | 1.8 |
| QRIWQEQEKKLSFIEALIQQYQEQ [T4W] | 1.71 |
| QRITQEQDKKLSFIEALIQQYQEQ [E8D] | 1.95 |
| QRITQEQPKKLSFIEALIQQYQEQ [E8P] | 1.66 |

| Variant | protein stability index |
| --- | --- |
| QRITQEQNKKLSFIEALIQQYQEQ [E8N] | 1.97 |
| QRITQEQEKKLSFIEALIQQYSEQ [Q22S] | 2.41 |
| QRITQEQEKKLSFIEALIQQYHEQ [Q22H] | 2.52 |
| QRITQEQEKKLSFIEALIQQYYEQ [Q22Y] | 2.62 |
| QRITQEQEKKLSFIEALIQQYPEQ [Q22P] | 3.12 |
| QRITQEIEKKLSFIEALIQQYQEQ [Q7I] | 4.42 |
| QRITQEWEKKLSFIEALIQQYQEQ [Q7W] | 3.76 |
| QRITQEKEKKLSFIEALIQQYQEQ [Q7K] | 1.96 |
| QRITQESEKKLSFIEALIQQYQEQ [Q7S] | 2.86 |
| QRITQETEKKLSFIEALIQQYQEQ [Q7T] | 3.54 |
| QRITQEPEKKLSFIEALIQQYQEQ [Q7P] | 2.31 |
| QRITQEQEKKLSFIEALIQQYQER [Q24R] | 2.06 |
| QRITQEQEKKLSFIEALIQQYQED [Q24D] | 1.82 |
| QRITQEQEKKLSFIEALIQQYQEA [Q24A] | 2.41 |
| QRITQEQEKGLSFIEALIQQYQEQ [K10G] | 3.58 |
| QRITQEQEKCLSFIEALIQQYQEQ [K10C] | 2.04 |
| QRITQEQEKHLSFIEALIQQYQEQ [K10H] | 2.7 |
| QRITQEQEKWLSFIEALIQQYQEQ [K10W] | 2.05 |
| QRITQEQEKLLSFIEALIQQYQEQ [K10L] | 1.72 |
| QVITQEQEKKLSFIEALIQQYQEQ [R2V] | 2.72 |
| QRITQEQEKKLSFIEALQQQYQEQ [I18Q] | 1.81 |
| QRITQEQEKKLSFIEALAQQYQEQ [I18A] | 2.65 |
| QRITQEQEKKLSFIEALLQQYQEQ [I18L] | 2.3 |
| QRITQEQEKKLSFIEALPQQYQEQ [I18P] | 4.54 |

| Variant | protein stability index |
| --- | --- |
| QRITQEQEKKLSFIEALTQQYQEQ [I18T] | 3.31 |
| QRITQEQEKKLSFIEALSQQYQEQ [I18S] | 2.94 |
| QRITQEQEKKCSFIEALIQQYQEQ [L11C] | 2.35 |
| QRITQEQEKKGSFIEALIQQYQEQ [L11G] | 2.53 |
| QRITQEQEKKPSFIEALIQQYQEQ [L11P] | 2.78 |
| QRITQEQEKKLSFIEALIQTYQEQ [Q20T] | 2.67 |
| QRITQEQEKKLSFIEALIQGYQEQ [Q20G] | 3.11 |
| QRITQEQEKKLSFIEALIQAYQEQ [Q20A] | 2.11 |
| QRITQEQEKKLSFIEALIQIYQEQ [Q20I] | 1.67 |
| QRITQEQEKKLSFIEALIQEYQEQ [Q20E] | 1.09 |
| VRITQEQEKKLSFIEALIQQYQEQ [Q1V] | 1.79 |
| YRITQEQEKKLSFIEALIQQYQEQ [Q1Y] | 1.95 |
| IRITQEQEKKLSFIEALIQQYQEQ [Q1I] | 2.75 |
| ERITQEQEKKLSFIEALIQQYQEQ [Q1E] | 3.15 |
| QRRTQEQEKKLSFIEALIQQYQEQ [I3R] | 2.76 |
| QRNTQEQEKKLSFIEALIQQYQEQ [I3N] | 2.48 |
| QRLTQEQEKKLSFIEALIQQYQEQ [I3L] | 2.5 |
| QRSTQEQEKKLSFIEALIQQYQEQ [I3S] | 2.59 |
| QRITQEQEKKLSFIEALIWQYQEQ [Q19W] | 2.62 |
| QRITQEQEKKLSFIEALITQYQEQ [Q19T] | 2.75 |
| QRITQEQEKKLSFIEALIDQYQEQ [Q19D] | 2.46 |
| QRITQEQEKKLSFIEALIAQYQEQ [Q19A] | 1.8 |
